Assay [1] deals with T1, KRS fragment (1-207aa) (human, UniProt Q15046 1-207).
T1 construct: range 1-207; also called purified protein of the KRS fragment (1-207aa); KRS protein
Briefly: SPR, Biacore T200, antibody amine-coupled on CM5, KRS (1-207aa) as analyte, 25 C. For orientation: Surface plasmon resonance follows binding to a sensor surface in real time, without labels.

The target of assay [2] is T1, KRS fragment (1-207aa). Briefly: SPR (Biacore T200), antibody immobilised on CM5, KRS 1-207 flowed at 4.8 to 1250 nM.
The target of assay [3] is T2, KRS epitope peptide F4.
T2 peptide: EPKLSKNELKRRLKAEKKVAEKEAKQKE
Briefly: SPR, Biacore T200, antibody on the chip, peptide F4 as analyte. The method, then:
The SPR experiment was performed using a Biacore T200 (GE Healthcare) equipped with a Series S sensor chip CM5 (GE Healthcare) at 25° C. After the antibody was immobilized on the chip using an amine coupling kit (GE Healthcare), the antigen was diluted 4 times in PBS solution in the range of 4.8 nM-1250 nM and flowed for 60 seconds. Thereafter, PBS was flowed for 300 seconds. The obtained data was analyzed with Biacore T200 Evaluation software v2.0 (GE Healthcare).
After that, PBS was flowed for 2400 seconds. The obtained data was analyzed with Biacore T200 Evaluation software v2.0 (GE Healthcare).

Assay [4] has as its target T3, NRP1-b1b2 (UniProt O14786 273-586, limits assumed).
T3 construct: domain: b1b2; Negative control antigen
T3 sequence (looked up): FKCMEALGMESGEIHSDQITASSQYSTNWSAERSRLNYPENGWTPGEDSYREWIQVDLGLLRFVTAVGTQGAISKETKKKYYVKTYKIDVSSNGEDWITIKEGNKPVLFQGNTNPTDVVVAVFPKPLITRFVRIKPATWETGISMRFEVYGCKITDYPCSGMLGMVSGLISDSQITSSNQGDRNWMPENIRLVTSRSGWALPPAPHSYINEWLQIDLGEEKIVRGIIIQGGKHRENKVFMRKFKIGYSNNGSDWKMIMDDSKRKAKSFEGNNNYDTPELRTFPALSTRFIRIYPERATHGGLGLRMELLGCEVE
Briefly: ELISA, coated antigen printed as NRP1. For orientation: In an ELISA, binding on a coated surface is turned into a signal by an enzyme label.

Consider three molecules from patent publication US20220049016A1 (ZYMEDI, published 2022).

Where a chain is given by its changes, count along the chain named.

T1 sequence (Q15046 1-207 limits assumed): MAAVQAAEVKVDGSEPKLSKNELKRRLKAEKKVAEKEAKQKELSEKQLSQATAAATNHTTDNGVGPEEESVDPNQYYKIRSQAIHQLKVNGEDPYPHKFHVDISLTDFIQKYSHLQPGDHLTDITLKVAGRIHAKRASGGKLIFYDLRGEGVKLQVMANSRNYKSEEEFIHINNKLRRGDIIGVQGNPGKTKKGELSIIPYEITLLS

B1: N3-1 antibody (IgG) (antibody)
chain 1: EVQLLESGGGLVQPGGSLRLSCAASGFTFSSYDMSWVRQAPGKGLEWVSAISYDNGNTYYADSVKGRFTISRDNSKNTLYLQMNSLRAEDTAVYYSARMALDFDYWGQGTLVTVSS
chain 2: QSVLTQPPSASGTPGQRVTISCTGSSSNIGSNYVTWYQQLPGTAPKLLIYDNSNRPSGVPDRFSGSKSGTSASLAISGLQSEDEADYYCASFSDELGAYVFGGGTKLTVL
Regarding B1, the Kd in assay [1] turned out to be 31 nM. Further, in assay [2], the koff is 0.0206 s⁻¹ and the kon came to 664000 M⁻¹ s⁻¹.

B2: N3-8-4 antibody (IgG) (antibody, V domains shown)
VH: B1 chain 1 with Y53P, D54Y, N55S, N57R, T58I, S96C, M99L
VL: QSVLTQPPSASGTPGQRVTISCTGSSSNIGSNYVTWYQQLPGTAPKLLIYDNSNRPSGVPDRFSGSKSGTSASLAISGLQSEDEADYYCSSFSDELGAYVFGGGTKLTVLG
notes: Whole IgG1, N3-8 derivative; also called N3-8-4 IgG
In assay [3], B2 showed a Kd of 10.1 nM, a koff of 0.0009 s⁻¹ and a kon of 89500 M⁻¹ s⁻¹.

B3: N3-8 antibody (IgG) (antibody)
heavy: not shown
light: QSVLTQPPSASGTPGQRVTISCTGSSSNIGSNYVTWYQQLPGTAPKLLIYDNSNRPSGVPDRFSGSKSGTSASLAISGLQSEDEADYYCSSFSDELGAYVFGGGTKLTVLRTVAAPSVFIFPPSDEQLKSGTASVVCLLNNFYPREAKVQWKVDNALQSGNSQESVTEQDSKDSTYSLSSTLTLSKADYEKHKVYACEVTHQGLSSPVTKSFNRGEC
notes: Whole IgG1; also called N3-8 IgG
As to B3, in assay [4], the binding result was “no binding (tested: 10 nM)”.

In general, Kd refers to the concentration at which binding is half-saturated. Read a high Kd as lower affinity. As a reminder, the koff is the rate constant with which the complex falls apart. Lower therefore signals slow dissociation. A word on the kon: it is a measure of how fast the partners come together. A high value points to faster complex formation.
